From US20240210401A1, “METHOD OF USING PACAP AND VIP PEPTIDES FOR DETECTING SHED OR CIRCULATING TUMOR CELLS IN BIOLOGICAL FLUIDS” (Thomas Jefferson University, priority 2013, published 2024)

Target: T1, VPAC1 receptors expressed on the cell membrane of prostate cancer cells (Homo sapiens, UniProt P32241)
T1 construct: VPAC1 receptors expressed on the cell membrane of prostate cancer cells; endogenous in cells; host or cells: prostate cancer cells cytospun from patients' urine
T1 sequence (P32241 31-457): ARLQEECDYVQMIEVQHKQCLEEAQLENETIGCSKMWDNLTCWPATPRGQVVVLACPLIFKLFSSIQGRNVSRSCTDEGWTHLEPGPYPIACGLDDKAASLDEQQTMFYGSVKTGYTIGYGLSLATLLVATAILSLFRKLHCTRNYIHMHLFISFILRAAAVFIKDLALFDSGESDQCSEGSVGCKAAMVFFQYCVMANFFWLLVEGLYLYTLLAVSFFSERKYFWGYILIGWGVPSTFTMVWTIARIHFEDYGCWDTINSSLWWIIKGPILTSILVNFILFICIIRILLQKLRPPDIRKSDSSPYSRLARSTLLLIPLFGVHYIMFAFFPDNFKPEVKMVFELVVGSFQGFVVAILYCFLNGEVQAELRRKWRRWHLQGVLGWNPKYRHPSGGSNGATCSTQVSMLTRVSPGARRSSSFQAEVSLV
Assay: Confocal imaging of cells from urine samples of prostate cancer patients
Format: cell-based
Description: The PACAP peptide, […]γAba-Lys (R) (SEQ ID NO: 7), was synthesized on a Wang resin using an ABI 341A peptide synthesizer (Applied Biosystems, Foster City, CA). The 27-amino acid long PACAP sequence was then assembled by standard Fmoc chemistry and coupled with a free sulfhydryl group attached to the C-terminus. This C-terminal sulfhydryl group was then reacted with a maleimide functionalized NIR dye to yield TP4303.
Urine samples from two patients, one with early phase prostate cancer and the other with advanced prostate cancer, were cytospinned, and cells were collected on glass slides. The cells were incubated with TP4303, washed with phosphate-buffered saline (PBS) and the slide was dried. The cells were treated with DAPI (4′,6-diamidino-2-phenylindole, a fluorescent stain that binds strongly to A-T rich regions in cellular DNA), a cover slip was placed on the sample and confocal microscopic analysis was performed (excitation, […]; emission, […]).

interaction with epithelial cells (epithelial cells in the urine samples, identified by DAPI, not expressing VPAC1): did not interact
interaction with sperm (sperm in the urine sample, identified by DAPI, not expressing VPAC1): did not interact
binding to VPAC1 receptors on prostate cancer cells (urine of two patients (early phase and advanced prostate cancer), confocal microscopy): bound
Substance: His-Ser-Asp-Gly-Ile-Phe-Thr-Asp-Ser-Tyr-Ser-Arg-Tyr-Arg-Lys-Gln-Met-Ala-Val-Lys-Lys-Tyr-Leu-Ala-Ala-Val-Leu-γAba-Lys (R) (SEQ ID NO: 7) (HSDGIFTDSYSRYRKQMAVKKYLAAVLEK; maleimide NIR dye conjugated via C-terminal sulfhydryl; MOD_RES 28 4Abu) [TP4303, PACAP peptide with C-terminal sulfhydryl group reacted with a maleimide functionalized NIR dye]
